Assay results: the supplement of paper PMC9112550, “Optimization of the antimicrobial peptide Bac7 by deep mutational scanning” (BMC Biology, 2022)

Tested on: Escherichia coli TOP10
Experiment: shrunken log2 fold change of peptide-encoding DNA abundance (4.5 h post-induction vs induction); higher = less antimicrobial activity (less host growth inhibition)
Details: time post-induction: 4.5 h; library: site-saturation at positions 5, 18, 19, 20
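Further: peptides expressed intracellularly from a pBAD plasmid library in pooled LB shake-flask culture, induced with 0.3% L-arabinose, DNA abundance read by NGS, three biological replicates, DESeq2 with apeglm shrinkage.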

| Sequence | shrunken log2 fold change |
| --- | --- |
| RRIRSRPPRLPRPRPRPWQSPRP | 0.143 |
| RRIRSRPPRLPRPRPRPWTTPRP | 0.00749 |
| RRIRSRPPRLPRPRPRPWTVPRP | -0.0297 |
| RRIRSRPPRLPRPRPRPWVTPRP | -0.89 |
| RRIRSRPPRLPRPRPRPWWNPRP | -0.0574 |
| RRIRSRPPRLPRPRPRPWWWPRP | 0.0716 |
| RRIRSRPPRLPRPRPRPWWYPRP | -0.0611 |
| RRIRSRPPRLPRPRPRPWYWPRP | -0.307 |
| RRIRSRPPRLPRPRPRPYCNPRP | -0.709 |
| RRIRSRPPRLPRPRPRPYCPPRP | -0.802 |
| RRIRSRPPRLPRPRPRPYCSPRP | -0.094 |
| RRIRSRPPRLPRPRPRPYDIPRP | -0.0295 |
| RRIRSRPPRLPRPRPRPYEAPRP | -0.241 |
| RRIRSRPPRLPRPRPRPYEFPRP | -0.438 |
| RRIRSRPPRLPRPRPRPYFNPRP | -0.626 |
| RRIRSRPPRLPRPRPRPYFVPRP | -1.14 |
| RRIRSRPPRLPRPRPRPYGCPRP | -0.248 |
| RRIRSRPPRLPRPRPRPYGFPRP | -0.85 |
| RRIRSRPPRLPRPRPRPYGYPRP | -0.00281 |
| RRIRSRPPRLPRPRPRPYHGPRP | -0.397 |
| RRIRSRPPRLPRPRPRPYKVPRP | -0.0179 |
| RRIRSRPPRLPRPRPRPYLCPRP | -0.627 |
| RRIRSRPPRLPRPRPRPYLPPRP | -0.552 |
| RRIRSRPPRLPRPRPRPYNNPRP | -0.785 |
| RRIRSRPPRLPRPRPRPYNTPRP | -1.1 |

| Sequence | shrunken log2 fold change |
| --- | --- |
| RRIRSRPPRLPRPRPRPYRPPRP | -0.365 |
| RRIRSRPPRLPRPRPRPYSPPRP | -0.839 |
| RRIRSRPPRLPRPRPRPYVHPRP | -0.175 |
| RRIRSRPPRLPRPRPRPYWGPRP | -0.0576 |
| RRIRSRPPRLPRPRPRPYWSPRP | -0.414 |
| RRIRSRPPRLPRPRPRPYYCPRP | 2.2 |
| RRIRSRPPRLPRPRPRPYYMPRP | -0.622 |
| RRIRSRPPRLPRPRPRPYYSPRP | -0.318 |
| RRIRSRPPRLPRPRPRPYYTPRP | -0.576 |
| RRIRTRPPRLPRPRPRPAAAPRP | 0.618 |
| RRIRTRPPRLPRPRPRPAAVPRP | -0.0116 |
| RRIRTRPPRLPRPRPRPACCPRP | 0.263 |
| RRIRTRPPRLPRPRPRPADHPRP | -0.0507 |
| RRIRTRPPRLPRPRPRPADNPRP | -0.294 |
| RRIRTRPPRLPRPRPRPAEIPRP | 0.083 |
| RRIRTRPPRLPRPRPRPAFDPRP | 0.161 |
| RRIRTRPPRLPRPRPRPAGMPRP | 0.0244 |
| RRIRTRPPRLPRPRPRPAGNPRP | 0.00723 |
| RRIRTRPPRLPRPRPRPAGRPRP | 0.352 |
| RRIRTRPPRLPRPRPRPAHGPRP | 0.00693 |
| RRIRTRPPRLPRPRPRPAHRPRP | 0.0856 |
| RRIRTRPPRLPRPRPRPAKMPRP | -0.0252 |
| RRIRTRPPRLPRPRPRPALGPRP | 0.898 |
| RRIRTRPPRLPRPRPRPALLPRP | 0.226 |
| RRIRTRPPRLPRPRPRPALYPRP | 0.0598 |

| Sequence | shrunken log2 fold change |
| --- | --- |
| RRIRTRPPRLPRPRPRPAMFPRP | -0.686 |
| RRIRTRPPRLPRPRPRPAMYPRP | -0.106 |
| RRIRTRPPRLPRPRPRPANNPRP | -0.736 |
| RRIRTRPPRLPRPRPRPANWPRP | 0.0703 |
| RRIRTRPPRLPRPRPRPASGPRP | 0.614 |
| RRIRTRPPRLPRPRPRPASRPRP | 0.279 |
| RRIRTRPPRLPRPRPRPAVAPRP | 0.422 |
| RRIRTRPPRLPRPRPRPAVWPRP | 0.556 |
| RRIRTRPPRLPRPRPRPAWAPRP | 1.53 |
| RRIRTRPPRLPRPRPRPAWMPRP | 0.307 |
| RRIRTRPPRLPRPRPRPAWSPRP | 0.358 |
| RRIRTRPPRLPRPRPRPAYLPRP | -0.0925 |
| RRIRTRPPRLPRPRPRPAYYPRP | 0.0141 |
| RRIRTRPPRLPRPRPRPCADPRP | -0.0062 |
| RRIRTRPPRLPRPRPRPCAEPRP | -0.11 |
| RRIRTRPPRLPRPRPRPCAIPRP | 0.00368 |
| RRIRTRPPRLPRPRPRPCAWPRP | -0.277 |
| RRIRTRPPRLPRPRPRPCCHPRP | -0.0132 |
| RRIRTRPPRLPRPRPRPCDMPRP | -0.729 |
| RRIRTRPPRLPRPRPRPCEAPRP | 0.114 |
| RRIRTRPPRLPRPRPRPCFLPRP | -0.535 |
| RRIRTRPPRLPRPRPRPCFTPRP | -0.358 |
| RRIRTRPPRLPRPRPRPCGEPRP | -0.23 |
| RRIRTRPPRLPRPRPRPCHGPRP | -0.0399 |
| RRIRTRPPRLPRPRPRPCHQPRP | -0.172 |
